Patent publication US20250263481A1 (SHIJIAZHUANG YILING PHARMACEUTICAL, published 2025)

Key:
[1] = molecular target: human CLDN18.2 expressed on cells (human); assay: cell-based or functional assay
[2] = molecular target: human CLDN18.2 expressed on cells (human); assay: cell-based or functional assay; remark: listed apart in the source
[3] = molecular target: human CLDN18.2 expressed on cells (human); assay: cell-based or functional assay; remark: listed apart in the source
[4] = molecular target: human CLDN18.2 expressed on cells (human); assay: cell-based or functional assay; remark: listed apart in the source
[5] = molecular target: human CLDN18.2 expressed on cells (human); assay: cell-based or functional assay; remark: listed apart in the source
[6] = molecular target: T1, human CLDN18.2 expressed on cells (human); assay: KinExA 4000, antibody constant, CHO cells over-expressing huCLDN18.2 titrated
T1 construct: also called huCLDN18.2; CLDN18.2-expressing 293T cells
Experimental: A KinExA 4000 instrument was also used to measure binding affinity of the antibodies to surface protein of intact cells, i.e., CHO cells over-expressing huCLDN18.2. Concentration of the antibodies was held constant (CBP) and concentration of whole cells with surface protein were varied (titrant). Concentration of whole cells with surface proteins were diluted three-fold. Titrated cells were incubated with the constant binding partner (CBP). Once equilibrium was reached, the samples were centrifuged, the supernatants were recovered, and the free CBP was detected with a fluorescently labeled anti-CBP molecule.
To establish a more accurate Kd, two equilibrium curves were prepared and analyzed. One curve with low concentration of CBP at 100 pM (200 pM binding sites) and 10⁶ cells/mL with three-fold dilutions, and one curve with high concentration of CBP at 10 nM (20 nM binding sites) and 10⁶ cells/mL with three-fold dilutions. The KinExA 4000 measured the amount of unbound CBP in solution. Analysis was performed using Sapidyne Instruments n-Curve Analysis Software version 4.4.26.

[7] = molecular target: T1, human CLDN18.2 expressed on cells; assay: flow cytometry (percent FITC-positive cells, GAH-FITC secondary) on CHO cells expressing huCLDN18.2
Experimental: CHO cells expressing huCLDN18.2 were used to assess the binding of the antibodies. Cells were seeded at 5×10⁵ cells per 100 μl into a well of a 96-well plate for each sample. Then, 100 μl of each serially diluted antibody was added to the cells, each dilution started at 40 µg/ml and was diluted 5-fold. Therefore, the final concentration of each antibody starts at 20 µg/ml followed by a 5-fold serial dilution. After 1 hour, the cells were washed twice and 100 μl of GAH-FITC (1:200 dilution) was added to each well. After 30 minutes, the cells were washed twice and resuspended in 120 μl of FACS buffer. The cells were analyzed via flow cytometry.
Unstained cells were used as a reference to set up overall target cell gating and to establish the FITC-negative populations, allowing us to establish the FITC-positive cell gate for each cell line. Additionally, the mean fluorescence intensity (MFI) of the entire population of cells was calculated to secondarily validate the FITC-positive results. The ratio of the gated positive cell number to the total live cell number is taken as the percentage of positive cells.

B1: YL-G2-B (antibody, human IgG1, kappa)
heavy: EVQLQQSGPELEKPGASVKISCKASGYSFTGYKMNWVKQSNGKSLEWIGNIDPYYGGTTYNQKFKGKATLTVDKSSSTAYMQLKSLTSEDSAVYYCARYGKGNTMDYWGQGTSVTVSSASTKGPSVFPLAPSSKSTSGGTAALGCLVKDYFPEPVTVSWNSGALTSGVHTFPAVLQSSGLYSLSSVVTVPSSSLGTQTYICNVNHKPSNTKVDKRVEPKSCDKTHTCPPCPAPELVGGPSVFLLPPKPKDTLMISRTPEVTCVVVDVSHEDPEVKFNWYVDGVEVHNAKTKPPEEQYNSTLRVVSVLTVLHQDWLNGKEYKCKVSNKALPAPIEKTISKAKGQPREPQVYTLPPSREEMTKNQVSLTCLVKGFYPSDIAVEWESNGQPENNYKTTPLVLDSDGSFFLYSKLTVDKSRWQQGNVFSCSVMHEALHNHYTQKSLSLSPGK
light: DIVMTQSPSSLTVTAGEKVTMSCKSSQSLLNSGNQKNYLTWYQQRPGQPPKLLIYWASTRESGVPVRFTGSGSGTDFTLTISSVQAEDLAVYYCQNAYIYPLTFGTGTKLELKRTVAAPSVFIFPPSDEQLKSGTASVVCLLNNFYPREAKVQWKVDNALQSGNSQESVTEQDSKDSTYSLSSTLTLSKADYEKHKVYACEVTHQGLSSPVTKSFNRGEC
notes: also called YL-G2-B batch 1; YL-G2-B batch 2
With B1 the “ADCC, FACS: EC50” value [1] was 0.0073 nM, the “ADCC, LDH: EC50” value [1] was 0.012 nM and the “CDC on CT26 CLDN18.2 cells, LDH: EC50 (batch 1)” value [2] was 0.14 nM. The “CDC on CT26 CLDN18.2 cells, LDH: EC50 (batch 2)” value [2] was 0.12 nM, the “CDC on KATOIII CLDN18.2 cells, LDH: EC50 (batch 1)” value [3] was 1.24 nM and the “CDC on KATOIII CLDN18.2 cells, LDH: EC50 (batch 2)” value [3] was 1.33 nM. The “ADCC on KATOIII CLDN18.2 cells, LDH: EC50 (batch 1)” value [4] was 0.028 nM, the “ADCC on KATOIII CLDN18.2 cells, LDH: EC50 (batch 2)” value [4] was 0.018 nM and the “ADCC on NCI-N87 CLDN18.2 cells, LDH: EC50 (batch 1)” value [5] was 0.0067 nM. For the same binder, the “ADCC on NCI-N87 CLDN18.2 cells, LDH: EC50 (batch 2)” value [5] was 0.012 nM, the Kd [6] was 0.0094 nM and the “EC50 (read off the curve)” value [7] was roughly 0.6 ng/mL.
